The text below walks through data of patent US20160024487.

The target in data set [1] is T1, Lys(Dnp)-ATNATYKPRIVGG-Lys(Abz).
T1 chain: KATNATYKPRIVGGK

Data set [2] deals with T2, Lys(Dnp)-ATNATVTPRIVGG-Lys(Abz).
T2 chain: KATNATVTPRIVGGK

The target in data set [3] is T3, Lys(Dnp)-ATNATFYPRIVGG-Lys(Abz).
T3 chain: KATNATFYPRIVGGK

The target in data set [4] is T4, Lys(Dnp)-ATNATAAPRIVGG-Lys(Abz).
T4 chain: KATNATAAPRIVGGK

The target of data set [5] is T5, Lys(Dnp)-ATNATIVPRIVGG-Lys(Abz).
T5 chain: KATNATIVPRIVGGK

Data set [6] deals with T6, Lys(Dnp)-ATNATPKPRIVGG-Lys(Abz).
T6 chain: KATNATPKPRIVGGK

In data set [7] the target is T7, Lys(Dnp)-ATNATPWPRIVGG-Lys(Abz).
T7 chain: KATNATPWPRIVGGK

The target of data set [8] is T8, Lys(Dnp)-ATNATVSPRIVGG-Lys(Abz).
T8 chain: KATNATVSPRIVGGK

The target of data set [9] is T9, Lys(Dnp)-ATNATLEPRIVGG-Lys(Abz).
T9 chain: KATNATLEPRIVGGK

For data set [10], the target named is T10, Lys(Dnp)-ATNATRVPRIVGG-Lys(Abz).
T10 chain: KATNATRVPRIVGGK

Data set [11] concerns the target T11, Lys(Dnp)-ATNATSLPRIVGG-Lys(Abz).
T11 chain: KATNATSLPRIVGGK

For data set [12], the target named is T12, Lys(Dnp)-ATNATDQPRIVGG-Lys(Abz).
T12 chain: KATNATDQPRIVGGK

The target in data set [13] is T13, Lys(Dnp)-ATNATLNPRIVGG-Lys(Abz).
T13 chain: KATNATLNPRIVGGK

Data set [14] deals with T14, Lys(Dnp)-ATNATIGPRIVGG-Lys(Abz).
T14 chain: KATNATIGPRIVGGK

For data set [15], the target named is T15, Lys(Dnp)-ATNATRFPRIVGG-Lys(Abz).
T15 chain: KATNATRFPRIVGGK

Data set [16] addresses T16, Lys(Dnp)-ATNATSYPRIVGG-Lys(Abz).
T16 chain: KATNATSYPRIVGGK

Data set [17] has as its target T17, Lys(Dnp)-ATNATTHPRIVGG-Lys(Abz).
T17 chain: KATNATTHPRIVGGK

Data set [18] addresses T18, Lys(Dnp)-ATNATQSPRIVGG-Lys(Abz).
T18 chain: KATNATQSPRIVGGK

The target in data set [19] is T19, Lys(Dnp)-ATNATESPRIVGG-Lys(Abz).
T19 chain: KATNATESPRIVGGK

For data set [20], the target named is T20, Lys(Dnp)-ATNATNAPRIVGG-Lys(Abz).
T20 chain: KATNATNAPRIVGGK

The target of data set [21] is T21, Lys(Dnp)-ATNATPLPRIVGG-Lys(Abz).
T21 chain: KATNATPLPRIVGGK

Data set [22] addresses T22, Lys(Dnp)-ATNATIAPRIVGG-Lys(Abz).
T22 chain: KATNATIAPRIVGGK

Data set [23] addresses T23, Lys(Dnp)-ATNATRKPRIVGG-Lys(Abz).
T23 chain: KATNATRKPRIVGGK

The target in data set [24] is T24, Lys(Dnp)-ATNATKEPRIVGG-Lys(Abz).
T24 chain: KATNATKEPRIVGGK

Data set [25] addresses T25, Lys(Dnp)-ATNATPSPRIVGG-Lys(Abz).
T25 chain: KATNATPSPRIVGGK

The target in data set [26] is T26, Lys(Dnp)-ATNATYRPRIVGG-Lys(Abz).
T26 chain: KATNATYRPRIVGGK

The target in data set [27] is T27, Lys(Dnp)-ATNATVNPRIVGG-Lys(Abz).
T27 chain: KATNATVNPRIVGGK

Data set [28] addresses T28, Lys(Dnp)-ATNATFNPRIVGG-Lys(Abz).
T28 chain: KATNATFNPRIVGGK

The target of data set [29] is T29, Lys(Dnp)-ATNATVPPRIVGG-Lys(Abz).
T29 chain: KATNATVPPRIVGGK

Data set [30] deals with T30, Lys(Dnp)-ATNATKVPRIVGG-Lys(Abz).
T30 chain: KATNATKVPRIVGGK

The target in data set [31] is T31, Lys(Dnp)-ATNATAWPRIVGG-Lys(Abz).
T31 chain: KATNATAWPRIVGGK

Data set [32] has as its target T32, Lys(Dnp)-ATNATPGPRIVGG-Lys(Abz).
T32 chain: KATNATPGPRIVGGK

Data set [33] deals with T33, Lys(Dnp)-ATNATPHPRIVGG-Lys(Abz).
T33 chain: KATNATPHPRIVGGK

For data set [34], the target named is T34, Lys(Dnp)-ATNATYNPRIVGG-Lys(Abz).
T34 chain: KATNATYNPRIVGGK

The target in data set [35] is T35, Lys(Dnp)-ATNATYGPRIVGG-Lys(Abz).
T35 chain: KATNATYGPRIVGGK

Data set [36] addresses T36, Lys(Dnp)-ATNATYAPRIVGG-Lys(Abz).
T36 chain: KATNATYAPRIVGGK

The target in data set [37] is T37, Lys(Dnp)-ATNATYFPRIVGG-Lys(Abz).
T37 chain: KATNATYFPRIVGGK

Data set [38] deals with T38, Lys(Dnp)-ATNATRYPRIVGG-Lys(Abz).
T38 chain: KATNATRYPRIVGGK

The target in data set [39] is T39, Lys(Dnp)-ATNATAHPRIVGG-Lys(Abz).
T39 chain: KATNATAHPRIVGGK

Data set [40] deals with T40, Lys(Dnp)-ATNATRRPRIVGG-Lys(Abz).
T40 chain: KATNATRRPRIVGGK

Data set [41] concerns the target T41, Lys(Dnp)-ATNATKYPRIVGG-Lys(Abz).
T41 chain: KATNATKYPRIVGGK

B1: Human plasma purified Factor Xa (protein)
chain 1: ANSFLEEMKKGHLERECMEETCSYEEAREVFEDSDKTNEFWNKYKDGDQCETSPCQNQGKCKDGLGEYTCTCLEGFEGKNCELFTRKLCSLDNGDCDQFCHEEQNSVVCSCARGYTLADNGKACIPTGPYPCGKQTLER
chain 2: IVGGQECKDGECPWQALLINEENEGFCGGTILSEFYILTAAHCLYQAKRFKVRVGDRNTEQEEGGEAVHEVEVVIKHNRFTKETYDFDIAVLRLKTPITFRMNVAPACLPERDWAESTLMTQKTGIVSGFGRTHEKGRQSTRLKMLEVPYVDRNSCKLSSSFIITQNMFCAGYDTKQEDACQGDSGGPHVTRFKDTYFVTGIVSWGEGCARKGKYGIYTKVTAFLKWIDRSMKTRGLPKAKSHAPEVITSSPLK
With B1, the FXa kcat/KM was 25 M⁻¹ s⁻¹ in [1]; 68 M⁻¹ s⁻¹ in data set [2]; 71 M⁻¹ s⁻¹ in data set [3]; 45 M⁻¹ s⁻¹ in [4]; 360 M⁻¹ s⁻¹ in [5]; 74 M⁻¹ s⁻¹ in [6]. Further, the FXa kcat/KM in data set [7] was 1300 M⁻¹ s⁻¹; in data set [8], 88 M⁻¹ s⁻¹.

B2: Human plasma purified Factor Xa (Molecular Innovations, Inc) (protein)
chain 1: B1 chain 1
chain 2: B1 chain 2
For B2, the FXa kcat/KM in [9] is 690 M⁻¹ s⁻¹; in [10], 510 M⁻¹ s⁻¹; in [11] it was 82 M⁻¹ s⁻¹; in data set [12], 2.2 M⁻¹ s⁻¹; in [13], 940 M⁻¹ s⁻¹; in [14] it was 170 M⁻¹ s⁻¹. Also, the FXa kcat/KM in [15] was found to be 730 M⁻¹ s⁻¹; in data set [16], 13 M⁻¹ s⁻¹; in data set [17], 14 M⁻¹ s⁻¹; in [18] it was 950 M⁻¹ s⁻¹; in data set [19] it was 5.3 M⁻¹ s⁻¹; in data set [20] it was 17 M⁻¹ s⁻¹. The FXa kcat/KM stood at 330 M⁻¹ s⁻¹ in data set [21]; 650 M⁻¹ s⁻¹ in data set [22]; 640 M⁻¹ s⁻¹ in [23]; 62 M⁻¹ s⁻¹ in [24]; 420 M⁻¹ s⁻¹ in data set [25]; 610 M⁻¹ s⁻¹ in [26]. Further, the FXa kcat/KM in data set [27] was 70 M⁻¹ s⁻¹; in data set [28] it was 200 M⁻¹ s⁻¹; in data set [29] it was 6.3 M⁻¹ s⁻¹; in data set [30], 50 M⁻¹ s⁻¹; in [31], 460 M⁻¹ s⁻¹; in data set [32] it was 100 M⁻¹ s⁻¹. Also, the FXa kcat/KM in data set [33] worked out at 360 M⁻¹ s⁻¹; in data set [34], 50 M⁻¹ s⁻¹; in [35] it was 41 M⁻¹ s⁻¹; in data set [36], 49 M⁻¹ s⁻¹; in [37], 34 M⁻¹ s⁻¹; in data set [38], 960 M⁻¹ s⁻¹. In addition, the FXa kcat/KM in data set [39] amounted to 140 M⁻¹ s⁻¹; in data set [40], 900 M⁻¹ s⁻¹; in data set [7], 1300 M⁻¹ s⁻¹; in data set [41], 38 M⁻¹ s⁻¹.
